# In the nanobody polyreactivity screen of Harvey et al. (2022):
# Assay: yeast display, Sf9 membrane polyspecificity reagent, FACS + sequencing; frameworks hold sequencing errors
# In short: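 Galactose induction of a Saccharomyces cerevisiae BJ5465 synthetic nanobody display library ran 36–48 hours. The cells were then stained for 1 hour at 4 °C with 10% biotinylated, detergent-solubilized Sf9 membrane reagent, pulled down on streptavidin microbeads and FACS-sorted into low and high (top ~1%) gates on expression and reagent-binding fluorescence. Labels for polyreactivity follow the gate of origin.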
row,Sequence,polyreactivity (PSR sort gate)
1,QVQLVDSGGGLVQAGGSLRLTCAASGNTFYYYAMGWYRQAPGKERELVAAINRGGNTYYADSVKGRFTISRDNAKNTVYLQMNSLKPEDTAVYYCAKRKSNPGNRQEYYYWGQGTQVTVSS,low polyreactivity
2,QVQLVDSGGGLVQAGGSLRLTCAASGSIFNHKAMGGYRQAHGKERELVAAIRFSTGTTYYADSVKGRFTISRDYAMNTVYVQMNSLKPEDTAVYYWNAQGYFTDYWLSSYFRDFDYWGQGTHVTVSS,low polyreactivity
3,QVQLVDSGGGLVQAGGSLRVSCAASGLIFTRNAMGWYRPAPGKERELVAAISSSGGSTYYADSVKGRFTISRDNAKNTVYLQLNSLKPEDTAVYYCATDAAYLFTAYDYWGQGTQVTVSS,low polyreactivity
4,QVQLVDSGGGLVQAGGSLSLSCAASGITFYRYMGLYRQGPWKSRELVASITGRGGSTYYADSVKGRFTISRDNAKNTGYLEMNSLKPEDTAVYYCAAVFPTKSSTWYDYWGQGTQVTVSS,high polyreactivity
5,QVQLVDSGGGLVQAGGSLSLSCAASGSILRYYAMVWYRQAPGKERELVAAISRSGGSTYYADSVKGRVTISGDNAKNKVYLLMNRLKPEDTAVYYCANSDFGHHVTGFGYWGQGTQVTVSS,low polyreactivity
6,QVQLVDSGGGLVQAGGSRRLSCADSGSIFGDYDMGWYRQAHGKERELVATIRYSGGTTYYADSVKGRFTISRDNAKNTVYLQLISLKPEDTAVYYCNARVWLFWTSELDSWGQGTQVTVSS,low polyreactivity
7,QVQLVDSGGGLVQAGVSLRLSCAASGSTFVGYAIGSYSQAPGKERELVAAISRSGGRTYYADSVKGRFTISRDKAKNTVYLQMNSLKPEDTAVYYCYPYYIASTFDEWGQGTQVTVSS,high polyreactivity
8,QVQLVDSGGGLVQGGGSLRLSCADSGYIFGRNAMGWYRQATGKEREFVAALSSSGSSTYYADSVKGRFTISRDNEKNTDYLQLNSLKPEDTAVDYCNAVRYYLAVPYDSWGQGTQVTVSS,high polyreactivity
9,QVQLVDSGGGVVQAGGSLRLSCAASGFIFHRYAMGWYRPAPGKERELVASITRSGGSTYYADSVKGRFTISRDNAKNTVYLQMNSLKPEDTAVYYCAAQLPAYYKYPRHDYWGQGTQVTVSS,high polyreactivity
10,QVQLVDSGGVLVQAVGSLRLSCAASGIIFDWYAMGWYRQAPGKERELVAAITANSDSTYYADSVNGRFTISRDNAKNTVYLQMNSLKPEDTAVYYCAARRQHRGANGGDYCGQGTQVTVSS,high polyreactivity
11,QVQLVDSGPGLVQAGGSLRLSCAASGGTFQPNARGCYRQAPGKERELVAAISGSGDSTYYADSVKGRFTISRDNAKNTVYLQMNSLKPEDTAVYYCNAYFWFSRYAWGDTSYDYWGQGTQVTVSS,low polyreactivity
12,QVQLVDSGVGLVQAGGRLSLSCAASGLIFDFYAMGGYRQAPGKERELVATISWSGGTTSYADSVKGLFTISRDNAKNTVYIQMNSLKPEDTAVYYCAADGFQYTLGNYYWGQGTQVTLSS,high polyreactivity
13,QVQLVDSRGGLVQAGGSLRLSCAASGRTFYRYAKGWDRPAPGKERDLVAVITSGSRTKYADSVKGRFTISRDTAKITVYLQMKSLKPEDTAVYSCAARGLALEGKSSGEYWGQGTQVTVSS,high polyreactivity
14,QVQLVDSRGGLVQAGGSLRLSCAASGSIFSYYAMGWYRQAPGKEMELVAAITSSDGSTYYPDSVKGRFTISRDNAKNTVYLQINSLKPEDTAVYDCKAVRKYWLLGRYDYWGQGTQVTVSS,high polyreactivity
15,QVQLVDSWGGLVQAGASLRLSCAASGNTYSSYAMGWYRKAPGKERELVASITGRGGSTYYSDSVKGRFTISRDNAKNIVYLQMNSLKPEDTAVYYCTAKRFYITDDPLDYFYWGQCTQVTVSS,high polyreactivity
16,QVQLVDTAGGLVQAGGILRLSCAASGSTMYGYAMGWYRQTPGKERELVAAINTGGSTNYADSVKGRFTISRDNAKNTVYLQMNSLKPDDTAVYYCAASYSLSFWDKDDYWGQGTQVTVSS,low polyreactivity
17,QVQLVDTGGGLGQAGGSLRLSCAASGSTFFPYAMGWYRQAPGKEREFVAGISSDGGTSYADSVKGRFTISRDNAKNTVYLQMNSLKPEDTAVYYCAALQADRDRYPEFDLMDYWGQGTQVSVSS,low polyreactivity
18,QVQLVDTGGGLVQAGGSLRLICAASGSIFKIYAMGWYRQAPGKERELVAAISSSGGSTYYADSVKGRFTISRDNAKNTVYLQMNCLKPEDTAVYYCAAGQSWRKNAYRYDYWGQGTQVTVSS,high polyreactivity
19,QVQLVEAGGGLVQAGGSLRLSCAAAGRTFSANALGWSRQAPGKERELVATITLRGGSTNYADSVKGPFTISRDHAKNTVYLQINSLKPEDTAVYDCNAYVNANVRRAYWGFDYWGQGTHVTVSS,high polyreactivity
20,QVQLVEAGGGLVQAGGSLRLSCAASGFIFSSNAMGWYRQAPGKERELVAGITASGVSTYYADSVKGRFTISRDNAKNTVYLQMNSLKPEDTAVYDCAALGLYYYFYSQYIAWDDYWGQGTQVTVSS,low polyreactivity

row,Sequence,polyreactivity (PSR sort gate)
1,QVQLVEAGGGLVQAGGSLRLSCAASGGTFTAYAMGWYRQAPGKERELVAAISASGDSTYYADSVKGRFTISRDNAKNTVYLQMNSLKPEDTAVYYCNADWYRTGRRGSDYWGQGTQVTVSS,low polyreactivity
2,QVQLVEAGGGLVQAGGSLRLSCAASGRIIVRNAMGWYLQPPGKESELVAAISWSSGGTYYADSVKGRFTISRDNAKNTVYLQMNSLKPEDTAVYYCNADPSRAGDYWGQGTQVTVSS,low polyreactivity
3,QVQLVEAGGGLVQAGGSLRLSCAASGRILRYYTMGWYRPAPGKERELVAAISRRGTSTHYADSVKGRFTISRDHAKNTVYLQMNSLKPEDTAVYYCAADPSVWSDYYYWGQGTQVTVSS,high polyreactivity
4,QVQLVEAGGGLVQAGGSLRLSCAASGRTFGSNAMGWYRQAPGKERELVAVITTSGGSTYYADSVKGRFTISRDNAKNTVYLQMNSLKPEDTAVYYCAKRVATGYIWYGYGYWGQGTQVTVSS,high polyreactivity
5,QVQLVEAGGGLVQAGGSLRLSCAASGRTFLYYDMGRYRQAPGKERELVAVITLRGGRTYYADSVKGRFTISRDNAKNTVYLQMNILKPEDTAVYYCAKDYSRGYNYWGQGTQVTVSS,high polyreactivity
6,QVQLVEAGGGLVQAGGSLRLSCAASGSIFFIYAMGWYRQAPGKERELVAAITSGDRTYYADSVKGRFTISRDNAKNTVYLQMNSLKPEDTAVYYCNADYYISYWGQGTQVTVSS,low polyreactivity
7,QVQLVEAGGGLVQAGGSLRLSCAASGYIGGNAMGWYRQAPGKERELVANISRSGGSTYYADSVKGRFTISRDNAKNTVYLQMNSLKPEDTAVYYCAAVSYGKYHWGMYYWGQGTQVTVSS,high polyreactivity
8,QVQLVEAGGRLVQAGGSLRLSCAASGGTFGTNNMGWYRQAPGKEMEVVAAISKRGGRTYYADSVKGRFTISRDNAKNTVYLQMNSLKPEDTAVYYCAADTGGNPKYDYWGQGTQVTVSS,high polyreactivity
9,QVQLVEAGGRLVQAGGSLRLSCAASGSIFYRNAMGGYRQKPGKEMELVAVITRRGGRKYYADSVKGRITISRDNAKNTVYLQMNSLIPEDTAVFYCAKRGWSDYNPIDYWGQGTPVTVSS,low polyreactivity
10,QVQLVEPGGCLVQAGGSLRLSCAASGSIFAYNSMGSYRQAPGKERELVAAITISGGRTYYADSVKGRFTISRDNAKNTVYLNMNSLKPEDTAVYYCNADNARGRSGVRRYYWGQGTQVTVSS,high polyreactivity
11,QVQLVESAAGLVQAGASHRLSCAPSGRIFVNYAMGGYRQAPGKERELVAAITSDGSTSYADSVKGRFTISRDNAKNTVYLQMNSLKPEDSADYYCAKDFFEHSPVSLTYSSSKYDYWGQGTQVTVSS,low polyreactivity
12,QVQLVESAAGLVQAGGSLRLSCAASGFISPLYDMGGYRQAPGKERELVADITWRGGSTSYADSVKGRFTLSRDTAKKTGYLQMNSLKPEDTAVYYCAADARAFYYSNINGYWGQGTQVNVSS,high polyreactivity
13,QVQLVESAAGLVQAGGSLRLSCAASGITFYRNAMGWYRQARGNEMELGAAITWNGGRTYYADSVKGRFTISRDNAKNTVYLQMNSLKPEDTALYYCAADSGTRNLASYRYYYWGQGTQVTVSS,high polyreactivity
14,QVQLVESAAGLVQAGGSLRLSCAASGLNSSYYAMGWYRQAPGKERELVAAISRCGSTNYADSVKGRFTISRDNGKNTLYLQMNSLKPEDTAVYYCNADEYGGSTGRKGRYNYWGQGTQVTVSS,low polyreactivity
15,QVQLVESAAGLVQAGGSLRLSCAASGRIFGSYVMGWYRQAPGKERELVAAISASGGSTYYADSVKGRFTISRDNAKNTVYLQMNSLKPEDTAVYYCAATSIYTWWDLLDYWGQGTQVTVSS,high polyreactivity
16,QVQLVESAAGLVQAGGSLRLSCAASGRNFYYYAMGWYRQAPGKEREVVAAINWSGGGTYYADSVKGRFTISRDNAKNTVYLQMNSLKPEDTAVYYCAAGFRYRYYWGQGTQVTVSS,high polyreactivity
17,QVQLVESAAGLVQAGGSLRLSCAASGSILKLNAMGWYRQAPGKERELVAAISRGGRTYYADSVKGRFTISRDNAKNTVYLQMHSLKPEDTAVYYCAADACLLGPGDFNYWGQGTQVTVSS,low polyreactivity
18,QVQLVESAAGLVQAGGSLRLSCAASGSNFYGNAMGWYRQAPGKERELVAAIRWRGGRTYYADSVKGRFTISRDNAKNTVYLQMNSMKPEDTAVYYCNALPGVSHTQYDRVGYWGQGTQVTVSS,high polyreactivity
19,QVQLVESAAGLVQAGGSLRLSCAPSGIIFGSYAMGWYRQEPGKESELVAAISRGTSTYYADSVKGRFTISRDNAKNTVYLQMNSLKPEDTAVYYCAATRQQYGPLSRFVYWYYYWGQGTQVTVSS,low polyreactivity
20,QVQLVESAAGLVQAGGSLRLSCPASARILRYYAMGWYRQAPGKERELVAAISPRGGRTYYADSVKGRFTISRDNAKNTVYLQMNSLKPEDTAVYYCASPGYFTTPSGSYDYWGQGTQVTVSS,high polyreactivity
